Here are results for three sequences from the supplement of paper PMC6379048.

Common to all, as to assay: Kd (EC50 corrected by depletion factor)
The target in one series is CXorf57 (UniProt Q6NSI4). The method in brief:
(§1)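 Kd was calculated as EC50, taken from a four-parameter log-logistic fit, multiplied by a protein-dependent depletion factor. The assay used HEK293-FT lysate (2.5 mg protein/well) pre-incubated for 1 h at 4°C with free RNA oligos (0 nM to 30 μM), then incubated for 30 min at 4°C with the matching oligos bound through a 5′-amino-C6 linker to NHS-Sepharose beads. Bound proteins were measured by label-free LC-MS/MS and normalised to the control.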

The target of a further series is T1, MCM4 (UniProt P33991).
T1 sequence: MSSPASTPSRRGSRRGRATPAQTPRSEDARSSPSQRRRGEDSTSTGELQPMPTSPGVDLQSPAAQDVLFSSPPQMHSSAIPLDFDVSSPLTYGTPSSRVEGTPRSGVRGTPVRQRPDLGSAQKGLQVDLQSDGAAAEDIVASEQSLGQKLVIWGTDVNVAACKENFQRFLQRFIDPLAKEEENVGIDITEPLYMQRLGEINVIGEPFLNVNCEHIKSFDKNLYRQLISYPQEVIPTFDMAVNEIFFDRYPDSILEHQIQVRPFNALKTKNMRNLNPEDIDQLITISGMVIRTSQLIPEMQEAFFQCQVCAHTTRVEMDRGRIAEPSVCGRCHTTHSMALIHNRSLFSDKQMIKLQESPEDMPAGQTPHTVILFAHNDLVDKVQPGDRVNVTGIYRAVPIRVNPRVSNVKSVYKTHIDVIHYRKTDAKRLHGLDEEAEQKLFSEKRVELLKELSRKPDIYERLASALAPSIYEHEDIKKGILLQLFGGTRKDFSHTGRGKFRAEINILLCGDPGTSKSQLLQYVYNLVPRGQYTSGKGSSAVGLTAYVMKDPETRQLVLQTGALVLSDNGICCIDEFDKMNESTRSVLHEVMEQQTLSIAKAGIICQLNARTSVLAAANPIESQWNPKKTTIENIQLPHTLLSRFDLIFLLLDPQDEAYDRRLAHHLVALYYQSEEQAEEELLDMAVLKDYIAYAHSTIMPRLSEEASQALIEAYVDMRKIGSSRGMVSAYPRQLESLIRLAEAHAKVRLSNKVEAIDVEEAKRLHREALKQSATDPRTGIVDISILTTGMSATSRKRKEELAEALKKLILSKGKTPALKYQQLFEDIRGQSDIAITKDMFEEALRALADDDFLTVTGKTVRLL
The method in brief: as §1

For a further series, the target named is T2, PINX1 (UniProt Q96BK5).
T2 sequence: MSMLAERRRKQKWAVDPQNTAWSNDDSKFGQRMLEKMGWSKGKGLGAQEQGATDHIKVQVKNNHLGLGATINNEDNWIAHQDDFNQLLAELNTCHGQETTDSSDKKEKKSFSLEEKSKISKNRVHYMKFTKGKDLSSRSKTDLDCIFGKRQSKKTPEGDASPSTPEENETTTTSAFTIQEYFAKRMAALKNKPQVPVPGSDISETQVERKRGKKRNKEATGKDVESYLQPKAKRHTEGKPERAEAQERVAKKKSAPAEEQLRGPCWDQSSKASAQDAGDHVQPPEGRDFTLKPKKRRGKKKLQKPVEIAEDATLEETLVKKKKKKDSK
Summed up: as §1

The next series deals with T3, DHX30 (UniProt Q7L2E3).
T3 sequence: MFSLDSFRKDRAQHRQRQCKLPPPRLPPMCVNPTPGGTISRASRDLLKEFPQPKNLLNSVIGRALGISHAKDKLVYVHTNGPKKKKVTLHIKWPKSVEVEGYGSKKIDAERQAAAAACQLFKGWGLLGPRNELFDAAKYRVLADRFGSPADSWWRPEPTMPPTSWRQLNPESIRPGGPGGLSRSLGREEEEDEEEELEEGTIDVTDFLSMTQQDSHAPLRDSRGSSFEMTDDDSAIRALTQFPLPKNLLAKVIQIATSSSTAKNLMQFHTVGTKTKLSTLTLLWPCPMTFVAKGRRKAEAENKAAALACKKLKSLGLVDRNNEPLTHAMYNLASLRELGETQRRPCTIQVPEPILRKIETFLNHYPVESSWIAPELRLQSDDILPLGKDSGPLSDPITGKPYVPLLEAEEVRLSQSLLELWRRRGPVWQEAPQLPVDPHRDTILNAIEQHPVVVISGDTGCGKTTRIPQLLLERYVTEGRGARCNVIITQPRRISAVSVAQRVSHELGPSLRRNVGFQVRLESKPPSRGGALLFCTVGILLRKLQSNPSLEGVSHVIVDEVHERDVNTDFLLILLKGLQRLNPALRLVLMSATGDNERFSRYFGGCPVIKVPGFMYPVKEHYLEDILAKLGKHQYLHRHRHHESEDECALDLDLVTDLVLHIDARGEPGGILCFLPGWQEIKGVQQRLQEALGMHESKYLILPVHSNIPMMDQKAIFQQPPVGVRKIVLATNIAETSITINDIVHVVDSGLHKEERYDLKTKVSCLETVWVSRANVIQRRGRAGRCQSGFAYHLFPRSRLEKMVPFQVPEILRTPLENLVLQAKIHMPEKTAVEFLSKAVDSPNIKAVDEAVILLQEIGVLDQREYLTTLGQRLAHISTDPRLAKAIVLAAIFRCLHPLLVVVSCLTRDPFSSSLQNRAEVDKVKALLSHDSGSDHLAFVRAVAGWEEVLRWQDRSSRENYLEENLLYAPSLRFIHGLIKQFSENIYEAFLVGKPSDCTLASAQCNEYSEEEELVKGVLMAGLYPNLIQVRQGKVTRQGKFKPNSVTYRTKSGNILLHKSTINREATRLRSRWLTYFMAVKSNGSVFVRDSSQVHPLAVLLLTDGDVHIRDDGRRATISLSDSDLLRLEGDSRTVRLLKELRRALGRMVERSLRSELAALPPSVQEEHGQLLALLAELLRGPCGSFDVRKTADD
Summed up:
as §1

A further series concerns the target T4, RBM38 (UniProt Q9H0Z9).
T4 sequence: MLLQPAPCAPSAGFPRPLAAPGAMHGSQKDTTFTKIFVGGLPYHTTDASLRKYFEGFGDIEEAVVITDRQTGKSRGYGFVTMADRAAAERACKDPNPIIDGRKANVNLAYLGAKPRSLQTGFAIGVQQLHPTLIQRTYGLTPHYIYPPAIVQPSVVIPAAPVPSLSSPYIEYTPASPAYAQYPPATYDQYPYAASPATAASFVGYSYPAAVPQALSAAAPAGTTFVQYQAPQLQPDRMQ
The method in brief:
as §1

CXorf57, sequence (Q6NSI4 whole entry): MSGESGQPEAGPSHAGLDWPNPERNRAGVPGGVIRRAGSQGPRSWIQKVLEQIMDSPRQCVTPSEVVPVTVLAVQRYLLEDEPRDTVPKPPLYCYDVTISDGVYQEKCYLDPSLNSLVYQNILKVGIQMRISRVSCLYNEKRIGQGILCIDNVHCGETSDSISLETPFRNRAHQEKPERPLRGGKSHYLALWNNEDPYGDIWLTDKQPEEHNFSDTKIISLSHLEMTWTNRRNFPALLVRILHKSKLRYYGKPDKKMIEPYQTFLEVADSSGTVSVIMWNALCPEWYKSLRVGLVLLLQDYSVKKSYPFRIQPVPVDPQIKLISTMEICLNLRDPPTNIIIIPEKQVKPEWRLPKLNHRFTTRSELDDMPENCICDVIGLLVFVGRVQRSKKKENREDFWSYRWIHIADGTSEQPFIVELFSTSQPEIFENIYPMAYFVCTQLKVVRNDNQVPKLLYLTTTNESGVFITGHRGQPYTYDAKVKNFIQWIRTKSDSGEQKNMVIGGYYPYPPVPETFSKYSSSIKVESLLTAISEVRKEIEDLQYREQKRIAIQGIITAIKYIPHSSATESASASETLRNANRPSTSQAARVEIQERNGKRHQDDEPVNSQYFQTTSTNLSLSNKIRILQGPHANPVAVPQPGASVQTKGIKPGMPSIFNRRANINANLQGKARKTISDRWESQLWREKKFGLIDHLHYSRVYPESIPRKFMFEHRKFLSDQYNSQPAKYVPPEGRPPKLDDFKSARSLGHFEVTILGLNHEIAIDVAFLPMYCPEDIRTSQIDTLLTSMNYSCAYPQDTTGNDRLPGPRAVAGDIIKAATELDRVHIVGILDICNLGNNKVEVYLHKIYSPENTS

In the case of AAUAAA, the Kd (as a rule, the equilibrium constant for the complex coming apart) with CXorf57 amounted to 1040 nM; in the series with MCM4 it was 25.8 nM; with PINX1, 360 nM.

In the case of CUGUCCU, in the series with DHX30, the Kd is 58.7 nM.

UAUUUAU displayed a Kd with RBM38 of 1270 nM.
